Starred links: 1 amine or outer side, 2 acyl side, 3 side chain; linkers in the order of their positions; H or OH if unused. Non-standard residues stand in square brackets, D forms with d. *: point of attachment. dThr(OBz) = D-threonine with an O-benzyl (OBz) group, C[C@H](OCc1ccccc1)[C@@H](N[*:1])C(=O)[*:2]; Thr(OBz) = threonine with O-benzyl ester (OBz); dBpa = N[C@H](Cc1ccc(C(=O)c2ccccc2)cc1)C(=O)O; Boc = CC(C)(C)OC(=O)*; Aib = CC(C)(N)C(=O)O
B1: Boc-Val-Ile-Aib-Thr(OBz)-Val-Aib-OMe (SEQ ID NO:6), all-L (peptide)
peptide: Boc-VI[Aib][Thr(OBz)]V[Aib]-OMe
B2: L-peptide Boc-Gly-Aib-Val-Val-Ile-Aib-Thr(OBz)-Val-Aib-Val-Ile-Aib-OMe (SEQ ID NO:17) (peptide)
peptide: Boc-G[Aib]VVI[Aib][Thr(OBz)]V[Aib]VI[Aib]-OMe
B3: Boc-Val-Aib-Ile-Ala-Thr(OBz)-Aib-Ile-Val-Aib-OMe (SEQ ID NO:4), all-L (peptide)
peptide: Boc-V[Aib]IA[Thr(OBz)][Aib]IV[Aib]-OMe
B4: Boc-Val-Gly-Aib-Val-Val-Ile-Aib-Thr(OBz)-Val-Aib-OMe (SEQ ID NO:10), all-L (peptide)
peptide: Boc-VG[Aib]VVI[Aib][Thr(OBz)]V[Aib]-OMe
B5: L-peptide Boc-Aib-Val-Val-Ile-Aib-Thr(OBz)-Val-Aib-Val-Ile-Aib-OMe (SEQ ID NO:16) (peptide)
peptide: Boc-[Aib]VVI[Aib][Thr(OBz)]V[Aib]VI[Aib]-OMe
B6: L-peptide Boc-Val-Gly-Aib-Val-Val-Ile-Aib-Thr(OBz)-Val-Aib-Val-Ile-Aib-OMe (SEQ ID NO:18) (peptide)
peptide: Boc-VG[Aib]VVI[Aib][Thr(OBz)]V[Aib]VI[Aib]-OMe
B7: Boc-Ile-Ala-Thr(OBz)-Aib-Ile-Val-Aib-OMe (SEQ ID NO:2), all-L (peptide)
peptide: Boc-IA[Thr(OBz)][Aib]IV[Aib]-OMe
B8: D-peptide Boc-Aib-Val-Gly-Aib-Val-Val-Ile-Aib-Thr(OBz)-Val-Aib-Val-Ile-Aib-OMe (SEQ ID NO:19) (peptide)
peptide: Boc-[Aib][dV]G[Aib][dV][dV][dI][Aib][dThr(OBz)][dV][Aib][dV][dI][Aib]-OMe
SMILES: CC[C@@H](C)[C@@H](NC(=O)[C@H](NC(=O)[C@H](NC(=O)C(C)(C)NC(=O)CNC(=O)[C@H](NC(=O)C(C)(C)NC(=O)OC(C)(C)C)C(C)C)C(C)C)C(C)C)C(=O)NC(C)(C)C(=O)N[C@@H](C(=O)N[C@@H](C(=O)NC(C)(C)C(=O)N[C@@H](C(=O)N[C@@H](C(=O)NC(C)(C)C(=O)OC)[C@H](C)CC)C(C)C)C(C)C)[C@H](C)OCc1ccccc1
B9: D-peptide Boc-Val-Val-Ile-Aib-Thr(OBz)-Val-Aib-Val-Ile-Aib-OMe (SEQ ID NO:15) (peptide)
peptide: Boc-[dV][dV][dI][Aib][dThr(OBz)][dV][Aib][dV][dI][Aib]-OMe
SMILES: CC[C@@H](C)[C@@H](NC(=O)[C@H](NC(=O)[C@H](NC(=O)OC(C)(C)C)C(C)C)C(C)C)C(=O)NC(C)(C)C(=O)N[C@@H](C(=O)N[C@@H](C(=O)NC(C)(C)C(=O)N[C@@H](C(=O)N[C@@H](C(=O)NC(C)(C)C(=O)OC)[C@H](C)CC)C(C)C)C(C)C)[C@H](C)OCc1ccccc1
B10: Boc-Val-Val-Ile-Aib-Thr(OBz)-Val-Aib-OMe (SEQ ID NO:7), all-L (peptide)
peptide: Boc-VVI[Aib][Thr(OBz)]V[Aib]-OMe
B11: D-peptide Boc-Val-Gly-Aib-Val-Val-Ile-Aib-Thr(OBz)-Val-Aib-Val-Ile-Aib-OMe (SEQ ID NO:18) (peptide)
peptide: Boc-[dV]G[Aib][dV][dV][dI][Aib][dThr(OBz)][dV][Aib][dV][dI][Aib]-OMe
SMILES: CC[C@@H](C)[C@@H](NC(=O)[C@H](NC(=O)[C@H](NC(=O)C(C)(C)NC(=O)CNC(=O)[C@H](NC(=O)OC(C)(C)C)C(C)C)C(C)C)C(C)C)C(=O)NC(C)(C)C(=O)N[C@@H](C(=O)N[C@@H](C(=O)NC(C)(C)C(=O)N[C@@H](C(=O)N[C@@H](C(=O)NC(C)(C)C(=O)OC)[C@H](C)CC)C(C)C)C(C)C)[C@H](C)OCc1ccccc1
B12: Boc-Gly-Aib-Val-Val-Ile-Aib-Thr(OBz)-Val-Aib-OMe (SEQ ID NO:9), all-L (peptide)
peptide: Boc-G[Aib]VVI[Aib][Thr(OBz)]V[Aib]-OMe
B13: Boc-Aib-Ala-Leu-Aib-Ala-Leu-Aib-Ala-Leu-Aib-OMe (SEQ ID NO:13) (peptide)
peptide: Boc-[Aib]AL[Aib]AL[Aib]AL[Aib]-OMe
SMILES: COC(=O)C(C)(C)NC(=O)[C@H](CC(C)C)NC(=O)[C@H](C)NC(=O)C(C)(C)NC(=O)[C@H](CC(C)C)NC(=O)[C@H](C)NC(=O)C(C)(C)NC(=O)[C@H](CC(C)C)NC(=O)[C@H](C)NC(=O)C(C)(C)NC(=O)OC(C)(C)C
B14: L-peptide Boc-Val-Val-Ile-Aib-Thr(OBz)-Val-Aib-Val-Ile-Aib-OMe (SEQ ID NO:15) (peptide)
peptide: Boc-VVI[Aib][Thr(OBz)]V[Aib]VI[Aib]-OMe
B15: Boc-Aib-Val-Val-Ile-Aib-Thr(OBz)-Val-Aib-OMe (SEQ ID NO:8), all-L (peptide)
peptide: Boc-[Aib]VVI[Aib][Thr(OBz)]V[Aib]-OMe
B16: Boc-Gly-Val-Aib-Ile-Ala-Thr(OBz)-Aib-Ile-Val-Aib-OMe (SEQ ID NO:5), all-L (peptide)
peptide: Boc-GV[Aib]IA[Thr(OBz)][Aib]IV[Aib]-OMe
B17: Boc-Aib-Ile-Ala-Thr(OBz)-Aib-Ile-Val-Aib-OMe (SEQ ID NO:3), all-L (peptide)
peptide: Boc-[Aib]IA[Thr(OBz)][Aib]IV[Aib]-OMe
B18: D-peptide Boc-Gly-Aib-Val-Val-Ile-Aib-Thr(OBz)-Val-Aib-Val-Ile-Aib-OMe (SEQ ID NO:17) (peptide)
peptide: Boc-G[Aib][dV][dV][dI][Aib][dThr(OBz)][dV][Aib][dV][dI][Aib]-OMe
SMILES: CC[C@@H](C)[C@@H](NC(=O)[C@H](NC(=O)[C@H](NC(=O)C(C)(C)NC(=O)CNC(=O)OC(C)(C)C)C(C)C)C(C)C)C(=O)NC(C)(C)C(=O)N[C@@H](C(=O)N[C@@H](C(=O)NC(C)(C)C(=O)N[C@@H](C(=O)N[C@@H](C(=O)NC(C)(C)C(=O)OC)[C@H](C)CC)C(C)C)C(C)C)[C@H](C)OCc1ccccc1
B19: D-peptide Boc-Leu-Aib-Val-Gly-Aib-Val-Val-Ile-Aib-Thr(OBz)-Val-Aib-Val-Ile-Aib-OMe (SEQ ID NO:20) (peptide)
peptide: Boc-[dL][Aib][dV]G[Aib][dV][dV][dI][Aib][dThr(OBz)][dV][Aib][dV][dI][Aib]-OMe
SMILES: CC[C@@H](C)[C@@H](NC(=O)[C@H](NC(=O)[C@H](NC(=O)C(C)(C)NC(=O)CNC(=O)[C@H](NC(=O)C(C)(C)NC(=O)[C@@H](CC(C)C)NC(=O)OC(C)(C)C)C(C)C)C(C)C)C(C)C)C(=O)NC(C)(C)C(=O)N[C@@H](C(=O)N[C@@H](C(=O)NC(C)(C)C(=O)N[C@@H](C(=O)N[C@@H](C(=O)NC(C)(C)C(=O)OC)[C@H](C)CC)C(C)C)C(C)C)[C@H](C)OCc1ccccc1
B20: L-peptide Boc-Leu-Aib-Val-Gly-Aib-Val-Val-Ile-Aib-Thr(OBz)-Val-Aib-Val-Ile-Aib-OMe (SEQ ID NO:20) (peptide)
peptide: Boc-L[Aib]VG[Aib]VVI[Aib][Thr(OBz)]V[Aib]VI[Aib]-OMe
B21: L-peptide Boc-Gly-Leu-Aib-Val-Gly-Aib-Val-Val-Ile-Aib-Thr(OBz)-Val-Aib-Val-Ile-Aib-OMe (SEQ ID NO:21) (peptide)
peptide: Boc-GL[Aib]VG[Aib]VVI[Aib][Thr(OBz)]V[Aib]VI[Aib]-OMe
B22: D-peptide Boc-Gly-Leu-Aib-Val-Gly-Aib-Val-Val-Ile-Aib-Thr(OBz)-Val-Aib-Val-Ile-Aib-OMe (SEQ ID NO:21) (peptide)
peptide: Boc-G[dL][Aib][dV]G[Aib][dV][dV][dI][Aib][dThr(OBz)][dV][Aib][dV][dI][Aib]-OMe
SMILES: CC[C@@H](C)[C@@H](NC(=O)[C@H](NC(=O)[C@H](NC(=O)C(C)(C)NC(=O)CNC(=O)[C@H](NC(=O)C(C)(C)NC(=O)[C@@H](CC(C)C)NC(=O)CNC(=O)OC(C)(C)C)C(C)C)C(C)C)C(C)C)C(=O)NC(C)(C)C(=O)N[C@@H](C(=O)N[C@@H](C(=O)NC(C)(C)C(=O)N[C@@H](C(=O)N[C@@H](C(=O)NC(C)(C)C(=O)OC)[C@H](C)CC)C(C)C)C(C)C)[C@H](C)OCc1ccccc1
B23: Boc-Ala-Thr(OBz)-Aib-Ile-Val-Aib-OMe (SEQ ID NO:1), all-L (peptide)
peptide: Boc-A[Thr(OBz)][Aib]IV[Aib]-OMe
B24: Boc-D-Val-Gly-Aib-D-Val-D-Val-D-BPA-Aib-D-Thr(OBz)-D-Val-Aib-OMe (SEQ ID NO:11) (peptide)
peptide: Boc-[dV]G[Aib][dV][dV][dBpa][Aib][dThr(OBz)][dV][Aib]-OMe
SMILES: COC(=O)C(C)(C)NC(=O)[C@H](NC(=O)[C@H](NC(=O)C(C)(C)NC(=O)[C@@H](Cc1ccc(C(=O)c2ccccc2)cc1)NC(=O)[C@H](NC(=O)[C@H](NC(=O)C(C)(C)NC(=O)CNC(=O)[C@H](NC(=O)OC(C)(C)C)C(C)C)C(C)C)C(C)C)[C@H](C)OCc1ccccc1)C(C)C
B25: L-peptide Boc-Aib-Val-Gly-Aib-Val-Val-Ile-Aib-Thr(OBz)-Val-Aib-Val-Ile-Aib-OMe (SEQ ID NO:19) (peptide)
peptide: Boc-[Aib]VG[Aib]VVI[Aib][Thr(OBz)]V[Aib]VI[Aib]-OMe
B26: D-peptide Boc-Aib-Val-Val-Ile-Aib-Thr(OBz)-Val-Aib-Val-Ile-Aib-OMe (SEQ ID NO:16) (peptide)
peptide: Boc-[Aib][dV][dV][dI][Aib][dThr(OBz)][dV][Aib][dV][dI][Aib]-OMe
SMILES: CC[C@@H](C)[C@@H](NC(=O)[C@H](NC(=O)[C@H](NC(=O)C(C)(C)NC(=O)OC(C)(C)C)C(C)C)C(C)C)C(=O)NC(C)(C)C(=O)N[C@@H](C(=O)N[C@@H](C(=O)NC(C)(C)C(=O)N[C@@H](C(=O)N[C@@H](C(=O)NC(C)(C)C(=O)OC)[C@H](C)CC)C(C)C)C(C)C)[C@H](C)OCc1ccccc1

Experiments:
Experiment in all cases: cell-based or functional assay
[1] = target: T1, γ-secretase in Chinese hamster ovary (CHO) cells stably transfected with human APP
[2] = target: γ-secretase (detergent-solubilized membranes from HeLa cells)
[3] = target: T1, γ-secretase in Chinese hamster ovary …; remark: listed apart in the source

Row | Binder | IC50 (concentration that reduced production of total Aβ by 50% in CHO cells stably transfected with human APP) [1] [nM] | Cell-free Assay IC50 (concentration required for 50% inhibition of Aβ40 production) [2] [nM] | also measured
1 | B1 | 12000 | – | –
2 | B2 | – | 360 | –
3 | B3 | 2000 | – | –
4 | B4 | 3000 | – | –
5 | B5 | – | 3100 | –
6 | B6 | – | 780 | –
7 | B7 | 15000 | – | –
8 | B8 | – | 14 | –
9 | B9 | – | 25 | –
10 | B10 | 6000 | – | –
11 | B11 | – | 0.14 | IC50 in a cell-based assay from APP-transfected CHO cells [3]: 9 nM
12 | B12 | 3000 | – | –
13 | B13 | – | – | IC50 of Aβ production in APP-transfected cells [3]: 2000 nM
14 | B14 | – | 10000 | –
15 | B15 | 6000 | – | –
16 | B16 | 5000 | – | –
17 | B17 | 10000 | – | –
18 | B18 | – | 12 | –
19 | B19 | – | 16 | –
20 | B20 | – | 4700 | –
21 | B21 | – | 11000 | –
22 | B22 | – | 26 | –
23 | B23 | 25000 | – | –
24 | B24 | – | – | IC50 in the same cell-based assay using CHO cells stably transfected with human APP (total Aβ production) [3]: 100 nM
25 | B25 | – | 910 | –
26 | B26 | – | 28 | –

— patent US20050272659A1 (BRIGHAM AND WOMEN S HOSPITAL, published 2005)
